The text below walks through data of US20050152898A1 (BIOVATION, published 2005).

By EC50 is commonly meant the concentration giving half of the maximal effect. A high value points to a need for much substance.

T1: CD52 human leukocyte antigen (human, UniProt P31358 25-36)
T1 construct: whole, on cells; also called CD52 antigen
T1 chain (looked up): GQNDTSQTSSPS

B1: DIVH2/DIVK2 (antibody, human IgG1, V domains shown)
VH: EVQLLESGGGLVQPGGSLRLSCAGSGFTFTDFYMNWIRQPPGKAPEWIGFIRDKAKGYTTEYNPSVKGRFTISRDNSKNTLYLQMNSLRAEDTAVYYCAREGHTAAPFDYWGQGTLVTVSS
VL: DIQMTQSPSSLSASVGDRVTITCKASQNIDKYLNWYQQKPGKAPKLLIYNTNNLQTGVPSRFSGSGSGTDFTLTISSLQPEDIATYYCLQHISRPRTFGTGTKLELK
notes: also called DIVH2IDIVK2; DIVHv2/DIVKv2
B2: DIVH2/DIVK3 (antibody, human IgG1, V domains shown)
VH: EVQLLESGGGLVQPGGSLRLSCAGSGFTFTDFYMNWIRQPPGKAPEWIGFIRDKAKGYTTEYNPSVKGRFTISRDNSKNTLYLQMNSLRAEDTAVYYCAREGHTAAPFDYWGQGTLVTVSS
VL: DIQMTQSPSSLSASVGDRVTITCRASQNIDKYLNWYQQKPGKAPKLLIYNTNNLQSGVPSRFSGSGSGTDFTLTISSLQPEDIATYYCLQHISRPRTFGTGTKLELK
notes: also called DIVHv2/DIVKv3
B3: DIVH4/DIVK1 (antibody, human IgG1, V domains shown)
VH: EVQLLESGGGLVQPGGSLRLSCAGSGFTFTDFYMNWVRQAPGKGLEWVGFIRDKAKGYTTEYNPSVKGRFTISRDNAKNSLYLQMNSLRAEDTAVYYCAREGHTAAPFDYWGQGTLVTVSS
VL: DIQMTQSPSSLSASVGDRVTITCRASQNIDKYLNWYQQKPGKAPKSLIYNTNNLQSGVPSRFSGSGSGTDFTLTISSLQPEDIATYYCLQHISRPRTFGTGTKLELK
notes: also called DIVHv4/DIVKv1
B4: DIVH3/DIVK2 (antibody, human IgG1, V domains shown)
VH: EVKLQESGGGLVQPGGSMRISCSGSGFTFTDFYMNWIRQPPGKGPEWIGFIRDKAKGYTTEYNPSVKGRFTISRDNTQNTLHLQANTLRAEDTAVYYCAREGHTAAPFDYWGQGTTVTVSS
VL: DIQMTQSPSSLSASVGDRVTITCKASQNIDKYLNWYQQKPGKAPKLLIYNTNNLQTGVPSRFSGSGSGTDFTLTISSLQPEDIATYYCLQHISRPRTFGTGTKLELK
notes: also called DIVHv3/DIVKv2
B5: DIVH4/DIVK4 (antibody, human IgG1, V domains shown)
VH: EVQLLESGGGLVQPGGSLRLSCAGSGFTFTDFYMNWVRQAPGKGLEWVGFIRDKAKGYTTEYNPSVKGRFTISRDNAKNSLYLQMNSLRAEDTAVYYCAREGHTAAPFDYWGQGTLVTVSS
VL: DIQMTQSPSSLSASVGDRVTITCKASQNIDKYLNWYQQKPGKAPKSLIYNTNNLQTGVPSRFSGSGSGTDFTLTISSLQPEDIATYYCLQHISRPRTFGTGTKLELK
notes: also called DIVHv4/DIVKv4
B6: DIVH5/DIVK1 (antibody, human IgG1, V domains shown)
VH: EVQLLESGGGLVQPGGSLRLSCAGSGFTFTDFYMNWIRQPPGKAPEWLGFIRDKAKGYTTEYNPSVKGRFTISRDNSKNTLYLQMNSLRAEDTAVYYCAREGHTAAPFDYWGQGTLVTVSS
VL: DIQMTQSPSSLSASVGDRVTITCRASQNIDKYLNWYQQKPGKAPKSLIYNTNNLQSGVPSRFSGSGSGTDFTLTISSLQPEDIATYYCLQHISRPRTFGTGTKLELK
notes: also called DIVHv5/DIVKv1
B7: DIVH2/DIVK1 (antibody, human IgG1, V domains shown)
VH: EVQLLESGGGLVQPGGSLRLSCAGSGFTFTDFYMNWIRQPPGKAPEWIGFIRDKAKGYTTEYNPSVKGRFTISRDNSKNTLYLQMNSLRAEDTAVYYCAREGHTAAPFDYWGQGTLVTVSS
VL: DIQMTQSPSSLSASVGDRVTITCRASQNIDKYLNWYQQKPGKAPKSLIYNTNNLQSGVPSRFSGSGSGTDFTLTISSLQPEDIATYYCLQHISRPRTFGTGTKLELK
notes: also called DIVHv2/DIVKv1
B8: DIVH1/DIVK3 (antibody, human IgG1, V domains shown)
VH: EVQLLESGGGLVQPGGSLRLSCAGSGFTFTDFYMNWVRQAPGKGLEWVGFIRDKAKGYTTEYNPSVKGRFTISRDNSKNTLYLQMNSLRAEDTAVYYCAREGHTAAPFDYWGQGTLVTVSS
VL: DIQMTQSPSSLSASVGDRVTITCRASQNIDKYLNWYQQKPGKAPKLLIYNTNNLQSGVPSRFSGSGSGTDFTLTISSLQPEDIATYYCLQHISRPRTFGTGTKLELK
notes: also called DIVHv1/DIVKv3
B9: DIVH4/DIVK2 (antibody, human IgG1, V domains shown)
VH: EVQLLESGGGLVQPGGSLRLSCAGSGFTFTDFYMNWVRQAPGKGLEWVGFIRDKAKGYTTEYNPSVKGRFTISRDNAKNSLYLQMNSLRAEDTAVYYCAREGHTAAPFDYWGQGTLVTVSS
VL: DIQMTQSPSSLSASVGDRVTITCKASQNIDKYLNWYQQKPGKAPKLLIYNTNNLQTGVPSRFSGSGSGTDFTLTISSLQPEDIATYYCLQHISRPRTFGTGTKLELK
notes: also called DIVHv4/DIVKv2
B10: DIVH1/DIVK4 (antibody, human IgG1, V domains shown)
VH: EVQLLESGGGLVQPGGSLRLSCAGSGFTFTDFYMNWVRQAPGKGLEWVGFIRDKAKGYTTEYNPSVKGRFTISRDNSKNTLYLQMNSLRAEDTAVYYCAREGHTAAPFDYWGQGTLVTVSS
VL: DIQMTQSPSSLSASVGDRVTITCKASQNIDKYLNWYQQKPGKAPKSLIYNTNNLQTGVPSRFSGSGSGTDFTLTISSLQPEDIATYYCLQHISRPRTFGTGTKLELK
notes: also called DIVHv1/DIVKv4
B11: DIVH2/DIVK4 (antibody, human IgG1, V domains shown)
VH: EVQLLESGGGLVQPGGSLRLSCAGSGFTFTDFYMNWIRQPPGKAPEWIGFIRDKAKGYTTEYNPSVKGRFTISRDNSKNTLYLQMNSLRAEDTAVYYCAREGHTAAPFDYWGQGTLVTVSS
VL: DIQMTQSPSSLSASVGDRVTITCKASQNIDKYLNWYQQKPGKAPKSLIYNTNNLQTGVPSRFSGSGSGTDFTLTISSLQPEDIATYYCLQHISRPRTFGTGTKLELK
notes: also called DIVHv2/DIVKv4
B12: DIVH4/DIVK3 (antibody, human IgG1, V domains shown)
VH: EVQLLESGGGLVQPGGSLRLSCAGSGFTFTDFYMNWVRQAPGKGLEWVGFIRDKAKGYTTEYNPSVKGRFTISRDNAKNSLYLQMNSLRAEDTAVYYCAREGHTAAPFDYWGQGTLVTVSS
VL: DIQMTQSPSSLSASVGDRVTITCRASQNIDKYLNWYQQKPGKAPKLLIYNTNNLQSGVPSRFSGSGSGTDFTLTISSLQPEDIATYYCLQHISRPRTFGTGTKLELK
notes: also called DIVHv4/DIVKv3
B13: DIVH1/DIVK1 (antibody, human IgG1, V domains shown)
VH: EVQLLESGGGLVQPGGSLRLSCAGSGFTFTDFYMNWVRQAPGKGLEWVGFIRDKAKGYTTEYNPSVKGRFTISRDNSKNTLYLQMNSLRAEDTAVYYCAREGHTAAPFDYWGQGTLVTVSS
VL: DIQMTQSPSSLSASVGDRVTITCRASQNIDKYLNWYQQKPGKAPKSLIYNTNNLQSGVPSRFSGSGSGTDFTLTISSLQPEDIATYYCLQHISRPRTFGTGTKLELK
notes: also called DIVHv1/DIVKv1
B14: DIVH5/DIVK2 (antibody, human IgG1, V domains shown)
VH: EVQLLESGGGLVQPGGSLRLSCAGSGFTFTDFYMNWIRQPPGKAPEWLGFIRDKAKGYTTEYNPSVKGRFTISRDNSKNTLYLQMNSLRAEDTAVYYCAREGHTAAPFDYWGQGTLVTVSS
VL: DIQMTQSPSSLSASVGDRVTITCKASQNIDKYLNWYQQKPGKAPKLLIYNTNNLQTGVPSRFSGSGSGTDFTLTISSLQPEDIATYYCLQHISRPRTFGTGTKLELK
notes: also called DIVHv5/DIVKv2
B15: DIVH2/DIVK5 (antibody, human IgG1, V domains shown)
VH: EVQLLESGGGLVQPGGSLRLSCAGSGFTFTDFYMNWIRQPPGKAPEWIGFIRDKAKGYTTEYNPSVKGRFTISRDNSKNTLYLQMNSLRAEDTAVYYCAREGHTAAPFDYWGQGTLVTVSS
VL: DIQMTQSPSSLSASVGDRVTITCKASQNIDKYLNWYQQKPGKSPKLLIYNTNNLQTGVPSRFSGSGSGTDFTLTISSLQPEDIATYYCLQHISRPRTFGTGTKLELK
notes: also called DIVHv2/DIVKv5; CAMPATH-1G DIVHv2/DIVKv5
B16: DIVH1/DIVK5 (antibody, human IgG1, V domains shown)
VH: EVQLLESGGGLVQPGGSLRLSCAGSGFTFTDFYMNWVRQAPGKGLEWVGFIRDKAKGYTTEYNPSVKGRFTISRDNSKNTLYLQMNSLRAEDTAVYYCAREGHTAAPFDYWGQGTLVTVSS
VL: DIQMTQSPSSLSASVGDRVTITCKASQNIDKYLNWYQQKPGKSPKLLIYNTNNLQTGVPSRFSGSGSGTDFTLTISSLQPEDIATYYCLQHISRPRTFGTGTKLELK
notes: also called DIVHv1/DIVKv5
B17: DIVH1/DIVK2 (antibody, human IgG1, V domains shown)
VH: EVQLLESGGGLVQPGGSLRLSCAGSGFTFTDFYMNWVRQAPGKGLEWVGFIRDKAKGYTTEYNPSVKGRFTISRDNSKNTLYLQMNSLRAEDTAVYYCAREGHTAAPFDYWGQGTLVTVSS
VL: DIQMTQSPSSLSASVGDRVTITCKASQNIDKYLNWYQQKPGKAPKLLIYNTNNLQTGVPSRFSGSGSGTDFTLTISSLQPEDIATYYCLQHISRPRTFGTGTKLELK
notes: also called DIVHv1/DIVKv2
B18: DIVH5/DIVK3 (antibody, human IgG1, V domains shown)
VH: EVQLLESGGGLVQPGGSLRLSCAGSGFTFTDFYMNWIRQPPGKAPEWLGFIRDKAKGYTTEYNPSVKGRFTISRDNSKNTLYLQMNSLRAEDTAVYYCAREGHTAAPFDYWGQGTLVTVSS
VL: DIQMTQSPSSLSASVGDRVTITCRASQNIDKYLNWYQQKPGKAPKLLIYNTNNLQSGVPSRFSGSGSGTDFTLTISSLQPEDIATYYCLQHISRPRTFGTGTKLELK
notes: also called DIVHv5/DIVKv3
B19: DIVH4/DIVK5 (antibody, human IgG1, V domains shown)
VH: EVQLLESGGGLVQPGGSLRLSCAGSGFTFTDFYMNWVRQAPGKGLEWVGFIRDKAKGYTTEYNPSVKGRFTISRDNAKNSLYLQMNSLRAEDTAVYYCAREGHTAAPFDYWGQGTLVTVSS
VL: DIQMTQSPSSLSASVGDRVTITCKASQNIDKYLNWYQQKPGKSPKLLIYNTNNLQTGVPSRFSGSGSGTDFTLTISSLQPEDIATYYCLQHISRPRTFGTGTKLELK
notes: also called DIVHv4/DIVKv5

This experiment addresses T1, CD52 human leukocyte antigen. The experiment in a line: FACS on HUT-78 cells (CD52+), FITC anti-human IgG Fc, median fluorescence, 4-parameter fit; titre = 50% of maximum binding. The procedure: Human T-cell lymphoma cell line HUT-78 is CD52 positive and was used to assess binding of the modified antibodies of the present invention. In the present example, different concentrations of test antibody were incubated with the cells and the amount of bound antibody was assessed following incubation with a fluorescent-labelled reporter reagent. The reporter is measured using a fluorescence activated cell sorter (FACS).
For detection, the cells were incubated for 1 hour on ice with a 1:1000 dilution of FITC-labelled anti-human IgG Fc domain. This reagent is a goat anti-human IgG (Fc specific) obtained from Sigma (Poole, UK). The cells were washed as previously and re-suspended in 100 μl of PBS/2% FBS and transferred to 4 ml FACS tubes (Becton Dickinson) containing 900 μl of PBS/2% FBS/Propidium Iodide (1:1000). The cells were analysed using a conventional Becton Dickenson FACS Calibur instrument.
The binding of the test and control antibodies was determined using the Median Fluorescence value. The saturating concentration of antibody was determined from plots of the Median Fluorescence—Zero Antibody Median Fluorescence versus Concentration of antibody. The binding curves were fitted to a logistic 4 parameter sigmoidal equation using SigmaPlot, giving an excellent fit with 95% confidence levels.
B1: a half-maximal effect (EC50) was put at 3.7 µg/mL. The result for B2 reads 3.89 µg/mL; that for B3, 4.43 µg/mL; that for B4, 17.8 µg/mL. In the case of B5 it was 8.54 µg/mL; in that of B6, 4.01 µg/mL. The result for B7 reads 5.56 µg/mL; that for B8, 1.71 µg/mL; that for B9, 1.59 µg/mL. As to B10, the EC50 was 3.45 µg/mL. In the case of B11, it took 6.21 µg/mL to reach a half-maximal effect (EC50). Consider B12, for which the EC50 worked out at 2.28 µg/mL. In the case of B13, it took 2.99 µg/mL to reach a half-maximal effect (EC50). In the case of B14 it was 2.45 µg/mL. In the case of B15 it was 1.18 µg/mL; in that of B16, 1.85 µg/mL. In the case of B17 it was 1.66 µg/mL; in that of B18, 2.55 µg/mL.

Take B19: it took 2.39 µg/mL to reach a half-maximal effect (EC50).
